Measurements from US20250250357A1 (NANJING ZAIMING PHARMACEUTICAL, published 2025).
Where a chain is given by its changes, count along the chain named.

T1: monkey MSLN on HEK293T-monkey MSLN recombinant cells (monkey)
T1 construct: Full-length precursor as transfected; processing on the cell is not described; also called HEK293-monkey MSLN
T1 chain: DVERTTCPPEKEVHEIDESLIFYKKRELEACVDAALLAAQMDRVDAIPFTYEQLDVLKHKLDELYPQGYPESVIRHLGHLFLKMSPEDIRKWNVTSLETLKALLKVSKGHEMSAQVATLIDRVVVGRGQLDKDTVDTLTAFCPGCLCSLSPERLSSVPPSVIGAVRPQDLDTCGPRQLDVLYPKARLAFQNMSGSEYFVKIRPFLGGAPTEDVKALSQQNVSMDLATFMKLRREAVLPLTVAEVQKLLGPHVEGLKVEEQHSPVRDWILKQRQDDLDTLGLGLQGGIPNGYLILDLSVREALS

B1: F2.23.12-H5 (scFv, not shown: small tags and cut ends)
scFv: EVQLVQSGAEVKKPGASVKVSCKASGYTFTNYWMHWVRQAPGQGLEWMGNINPSNGGPYYNERFRSRVTMTVDKSTSTAYMELSSLRSEDTAVYYCARPYYGSSYGYFDYWGQGTTVTVSSGGGGSGGGGSGGGGSDIQMTQSPSSLSASVGDRVTITCKASQDINKYIAWYQQKPGKAPKLLIHYTSELQPGVPSRFSGSGSGTDFTFTISSLQPEDIATYYCLQYANPLRTFGGGTKVEIK
notes: also called S009-F2.23.12 humanized antibody VH2 + VL1
B2: F2.23.12-H13 (scFv, not shown: small tags and cut ends)
scFv: B1 scFv with N55Q
notes: also called S009-F2.23.12 humanized antibody VH4 + VL1
B3: F2.23.12-H16 (scFv, not shown: small tags and cut ends)
scFv: B1 scFv with N55Q, Q174H, T205R, F207Y
notes: also called S009-F2.23.12 humanized antibody VH4 + VL4
B4: F2.23.12-H1 (scFv, not shown: small tags and cut ends)
scFv: B1 scFv with A79V
notes: also called S009-F2.23.12 humanized antibody VH1 + VL1
B5: F2.23.12-H4 (scFv, not shown: small tags and cut ends)
scFv: B1 scFv with A79V, Q174H, T205R, F207Y
notes: also called S009-F2.23.12 humanized antibody VH1 + VL4
B6: F2.23.12-H8 (scFv, not shown: small tags and cut ends)
scFv: B1 scFv with Q174H, T205R, F207Y
notes: also called S009-F2.23.12 humanized antibody VH2 + VL4
B7: F2.39.3-H8 (scFv, not shown: small tags and cut ends)
scFv: EVQLVQSGAEVKKPGASVKVSCKASGYTFTNYWMHWVRQAPGQGLEWMGNINPSSGDSYYNERFMSRVTMTVDKSTSTAYMELSSLRSEDTAVYYCARSGGLWLAFWGQGTLVTVSSGGGGSGGGGSGGGGSDIVMTQTPLSLSVTPGQPASISCKSSQTLLNSVSQNNYLAWYQQKPGQSPTLLVYFASTRESGVPDRFSGSGSGTDFTLKISRVEAEDVGVYYCQQHYRTPYTFGGGTKVEIK
notes: also called S009-F2.39.3 humanized antibody VH2 + VL4
B8: F2.39.3-H6 (scFv, not shown: small tags and cut ends)
scFv: EVQLVQSGAEVKKPGASVKVSCKASGYTFTNYWMHWVRQAPGQGLEWMGNINPSSGDSYYNERFMSRVTMTVDKSTSTAYMELSSLRSEDTAVYYCARSGGLWLAFWGQGTLVTVSSGGGGSGGGGSGGGGSDIVMTQSPDSLAVSLGERATINCKSSQTLLNSVSQNNYLAWYQQKPGQSPTLLIYFASTRESGVPDRFSGSGSGTDFTLTISSLQAEDVAVYYCQQHYRTPYTFGGGTKVEIK
notes: also called S009-F2.39.3 humanized antibody VH2 + VL2
B9: F2.39.3-H2 (scFv, not shown: small tags and cut ends)
scFv: B8 scFv with A79V
notes: also called S009-F2.39.3 humanized antibody VH1 + VL2
B10: F2.39.3-H9 (scFv, not shown: small tags and cut ends)
scFv: B8 scFv with Q109P, T183K
notes: also called S009-F2.39.3 humanized antibody VH3 + VL1
B11: S009-F7.25.19 chimeric antibody (antibody, human IgG1, kappa, V domains shown)
VH: QVQLQQPGTELVKPGASVKLSCKASGYTFTSYWMHWVKQRPGQGLEWIGNIIPSNGGTKYNEKFKSKATLTVDKSSSTAYMQLSSLTSEDSAVYYCSPHYYGGSPGFAYWGQGTLITVSA
VL: DIVMTQSQKFMSTSVGDRVSVICKASQNVGTNVAWYQQKPGQSPKALIYSASYRYSGVPDRFTGSGSGTDFTLTISNVQSEDLAEYFCQQYNSYPLTFGGGTKLEIKR
notes: Human-murine chimeric antibody, human IgG1/kappa constant regions
B12: S009-F7.69.8 (antibody, human IgG1, kappa, V domains shown)
VH: EVHLQQSGPELVKPGASVRIPCKASGYTFTDYNMDWVKQSHGKSLEWIGDINPDNGGTIYTQKFKGKATLTVDKSSSTAYMELRSLTSEDTAVYYCARRLHYYGSSGLDYWGQGTTLTVSS
VL: DIQMTQSPASLSAYVGETVTITCRASGNIHNYLAWYQQKQGKSPQLLVYNAKTLADGVPSRFSGSGSGTQYSLKINSLQPEDFGSYYCQHFWSTVWTFGGGTKLEIKR
notes: Human-murine chimeric antibody, human IgG1 heavy and kappa light constant regions
B13: S009-F7.21.16 (antibody, human IgG1, kappa, V domains shown)
VH: QVQLQQPGTELVKPGASVKLSCKASGYTFTTFWMHWVKQRPGQGLEWIGGVNPTNGGTNYNEKFRTKATLTVDKSSTTADMQLSSLTSEDSAVYYCAPHYISSRPGFAYWGQGTLVTVSG
VL: B11 VL with V15G, I22T, T72I
notes: as for B12

These binders were tested against T2, human MSLN on OVCAR3 tumor cells (human, UniProt Q13421 296-598) (assay: FACS, OVCAR3 cells).
T2 construct: whole, on cells; also called human MSLN protein
T2 sequence (Q13421 other isoform, or with tags, fused parts or gaps): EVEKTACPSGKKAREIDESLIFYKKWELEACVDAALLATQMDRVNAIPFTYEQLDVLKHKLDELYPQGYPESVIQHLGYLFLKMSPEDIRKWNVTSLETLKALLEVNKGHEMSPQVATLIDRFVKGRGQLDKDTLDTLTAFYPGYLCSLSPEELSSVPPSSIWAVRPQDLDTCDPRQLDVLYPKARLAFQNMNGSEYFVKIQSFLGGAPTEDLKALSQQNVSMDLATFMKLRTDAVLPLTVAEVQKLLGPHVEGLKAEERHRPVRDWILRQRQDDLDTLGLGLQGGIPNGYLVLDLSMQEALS
Work on B1 yielded an EC50 of 11.3 nM and a Maximum_MFI of 3340 MFI. In the case of B2, the EC50 is reported as 38.6 nM and the Maximum_MFI is reported as 3110 MFI. For B3, the EC50 was 80.4 nM and the Maximum_MFI was 2920 MFI. B4 gave an EC50 of 9.56 nM and a Maximum_MFI of 3250 MFI. Work on B5 yielded an EC50 of 9.9 nM and a Maximum_MFI of 3630 MFI. B6 showed an EC50 of 14.5 nM and a Maximum_MFI of 3040 MFI. B7 gave an EC50 of 18.6 nM and a Maximum_MFI of 4120 MFI. B8 was tested, and the EC50 was 40.3 nM and the Maximum_MFI was 4160 MFI. In the case of B9, the EC50 is reported as 54 nM and the Maximum_MFI is reported as 4220 MFI. In the case of B10, the EC50 is reported as 17.2 nM and the Maximum_MFI is reported as 4300 MFI.

Each binder was assayed against T3, human MSLN-R3 on HEK293T-hMSLN-R3 recombinant cells (human, UniProt Q13421 487-606) (assay: FACS, HEK293T-hMSLN-R3 cells).
T3 construct: the C-terminal limit is uncertain; also called human MSLN-R3 membrane protein
T3 sequence (Q13421 495-614): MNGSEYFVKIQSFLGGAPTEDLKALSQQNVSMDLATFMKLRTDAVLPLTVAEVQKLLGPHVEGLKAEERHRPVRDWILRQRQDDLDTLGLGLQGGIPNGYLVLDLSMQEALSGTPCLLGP
B1 was tested, and the EC50 was 4.16 nM and the Maximum_MFI was 4730 MFI. With B2 the EC50 was 8.3 nM and the Maximum_MFI was 4710 MFI. With B3 the EC50 was 9.39 nM and the Maximum_MFI was 4010 MFI. Binder B4 has an EC50 of 4.7 nM and a Maximum_MFI of 4720 MFI. In the case of B5, the EC50 is reported as 2.67 nM and the Maximum_MFI is reported as 4760 MFI. For B6, the EC50 was 5.57 nM and the Maximum_MFI was 4590 MFI. B7 was tested, and the EC50 was 6.91 nM and the Maximum_MFI was 5600 MFI. B8 was tested, and the EC50 was 6.26 nM and the Maximum_MFI was 5780 MFI. Binder B9 has an EC50 of 6.33 nM and a Maximum_MFI of 5970 MFI. With B10 the EC50 was 5.66 nM and the Maximum_MFI was 5560 MFI.

Target: T1, monkey MSLN on HEK293T-monkey MSLN …
Assay: FACS, HEK293T-monkey MSLN cells
Work on B1 yielded an EC50 of 5.86 nM and a Maximum_MFI of 17700 MFI. Binder B2 has an EC50 of 10.9 nM and a Maximum_MFI of 17600 MFI. B3 was tested, and the EC50 was 12.3 nM and the Maximum_MFI was 16100 MFI. In the case of B4, the EC50 is reported as 6.72 nM and the Maximum_MFI is reported as 16000 MFI. B5 was tested, and the EC50 was 2.5 nM and the Maximum_MFI was 14500 MFI. In the case of B6, the EC50 is reported as 5.22 nM and the Maximum_MFI is reported as 14700 MFI. B7 gave an EC50 of 12.8 nM and a Maximum_MFI of 26000 MFI. B8 was tested, and the EC50 was 8.9 nM and the Maximum_MFI was 24100 MFI. Work on B9 yielded an EC50 of 8.74 nM and a Maximum_MFI of 24900 MFI. In the case of B10, the EC50 is reported as 7.73 nM and the Maximum_MFI is reported as 23300 MFI.

The binders below were run against T4, human MSLN-FL-his protein (human, UniProt Q13421 296-580) (assay: ELISA, coated antigen, antibody 2 nM).
T4 construct: Made in HEK293E cells, purified on nickel column; also called hMSLN-FL-his; human MSLN full-length protein; not shown: His tag
T4 sequence (Q13421 other isoform, or with tags, fused parts or gaps): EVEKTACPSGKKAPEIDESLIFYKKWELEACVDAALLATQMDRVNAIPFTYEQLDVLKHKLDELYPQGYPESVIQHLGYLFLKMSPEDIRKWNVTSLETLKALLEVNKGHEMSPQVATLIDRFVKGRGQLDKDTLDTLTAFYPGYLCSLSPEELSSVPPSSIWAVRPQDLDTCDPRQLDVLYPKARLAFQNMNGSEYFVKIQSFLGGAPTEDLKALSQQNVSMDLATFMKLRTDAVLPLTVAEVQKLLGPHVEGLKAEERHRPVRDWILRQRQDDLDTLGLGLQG
For B11, the OD450 was 2.39.

What follows are binders tested against T4, human MSLN-FL-his protein (assay: ELISA, coated antigen, antibody 20 nM).
Binder B11 has an OD450 of 2.48.

Each binder was assayed against T4, human MSLN-FL-his protein (assay: ELISA, coated antigen, antibody 0.2 nM).
Binder B11 has an OD450 of 2.4.

The binders below were run against T4, human MSLN-FL-his protein (assay: ELISA, coated antigen, antibody 200 nM).
With B11 the OD450 was 2.32.

The binders below were run against T5, human MSLN-R3-his protein (human, UniProt Q13421 487-598) (assay: ELISA on coated antigen, antibody 2 nM).
T5 construct: it is put last here; also called human MSLN-R3 protein; hMSLN-R3-his; not shown: His tag
T5 sequence (Q13421 495-606): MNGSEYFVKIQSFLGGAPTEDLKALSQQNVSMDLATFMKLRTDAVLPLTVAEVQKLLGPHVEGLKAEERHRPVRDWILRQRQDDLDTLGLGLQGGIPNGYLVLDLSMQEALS
Work on B12 yielded an OD450 of 2.54 OD. B13 was tested, and the OD450 was 2.75 OD.

Each binder was assayed against T4, human MSLN-FL-his protein (assay: ELISA, coated antigen, antibody 0.02 nM).
In the case of B11, the OD450 is reported as 1.9.

The binders below were run against T5, human MSLN-R3-his protein (assay: ELISA on coated antigen, antibody 20 nM).
Binder B12 has an OD450 of 2.55 OD. For B13, the OD450 was 2.52 OD.

These binders were tested against T4, human MSLN-FL-his protein (assay: ELISA, coated antigen, antibody 0.002 nM).
Binder B11 has an OD450 of 1.25.

What follows are binders tested against T5, human MSLN-R3-his protein (assay: ELISA on coated antigen, antibody 0.2 nM).
Binder B12 has an OD450 of 1.96 OD. B13 was tested, and the OD450 was 2.5 OD.

Each binder was assayed against T5, human MSLN-R3-his protein (assay: ELISA on coated antigen, antibody 200 nM).
With B12 the OD450 was 2.56 OD. For B13, the OD450 was 2.92 OD.

What follows are binders tested against T4, human MSLN-FL-his protein (assay: ELISA, coated antigen, antibody 0.0002 nM).
B11 gave an OD450 of 0.52.

Each binder was assayed against T5, human MSLN-R3-his protein (assay: ELISA on coated antigen, antibody 0.02 nM).
B12 gave an OD450 of 0.38 OD. B13 gave an OD450 of 1.32 OD.

These binders were tested against T4, human MSLN-FL-his protein (assay: ELISA, coated antigen, no antibody (blank)).
Binder B11 has an OD450 of 0.06.

These binders were tested against T5, human MSLN-R3-his protein (assay: ELISA on coated antigen, antibody 0.002 nM).
B12 showed an OD450 of 0.11 OD. B13 was tested, and the OD450 was 0.71 OD.

These binders were tested against T5, human MSLN-R3-his protein (assay: ELISA on coated antigen, antibody 0.0002 nM).
B12 showed an OD450 of 0.06 OD. B13 showed an OD450 of 0.31 OD.

Each binder was assayed against T6, human MSLN-hFc recombinant protein (human, UniProt Q13421 296-580) (assay: SPR (Biacore 8K), MSLN-hFc captured, antibody injected).
T6 construct: Captured by an anti-human IgG antibody on the chip; also called human MSLN protein; Acro MSN-H5253
T6 sequence (Q13421 other isoform, or with tags, fused parts or gaps): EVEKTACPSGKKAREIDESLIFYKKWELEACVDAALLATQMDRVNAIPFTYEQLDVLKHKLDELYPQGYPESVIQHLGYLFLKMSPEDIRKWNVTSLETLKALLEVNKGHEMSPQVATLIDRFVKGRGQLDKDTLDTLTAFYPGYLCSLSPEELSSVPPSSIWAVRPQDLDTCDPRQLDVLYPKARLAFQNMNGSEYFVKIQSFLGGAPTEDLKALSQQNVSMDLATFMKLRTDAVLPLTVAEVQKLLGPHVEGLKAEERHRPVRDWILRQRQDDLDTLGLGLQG
For B1, the Kd was 7.74 nM, the koff was 0.000473 s⁻¹ and the kon was 61200 M⁻¹ s⁻¹. In the case of B2, the Kd is reported as 31.1 nM, the koff is reported as 0.000482 s⁻¹ and the kon is reported as 15500 M⁻¹ s⁻¹. For B9, the Kd was 0.985 nM, the koff was 3.39e-05 s⁻¹ and the kon was 34400 M⁻¹ s⁻¹. B10 showed a Kd of 0.734 nM, a koff of 3.19e-05 s⁻¹ and a kon of 43500 M⁻¹ s⁻¹.

What follows are binders tested against T5, human MSLN-R3-his protein (assay: ELISA on coated antigen, no antibody (blank, column 'none')).
Work on B12 yielded an OD450 of 0.07 OD. B13 gave an OD450 of 0.08 OD.
